According to patent US20080213812:

System: Site C binding proteins, HeLa nuclear fraction (HA pool; LBP-1b and LBP-1c/LSF identified by MS) (Homo sapiens)
Assay: pulldown

Sequence | binding signal (fmol shifted per ug protein) (equivalent OBC column fraction, 6,300 units and 103 ug, four fold less Site C EMSA activity recovered than from Site C column) | binding signal (fmol shifted per ug protein) (oligo affinity column fraction, 25,332 units and 36.7 ug protein, activity assayed by Site C EMSA)
TCGCGGCGAGAGTTTCAGGCAGCGCTGCGT (double strand) [OBC oligo] | 61.2 | 
TCGCGGCGCGAGTTTCAGGCAGCGCTGCGT (double strand) [Site C oligo (hTERT promoter)] |  | 690
